{
  "source": "patent US20140178899",
  "proteins": {"B1": {"name": "DAPk's catalytic domain (DK1), bacterially purified (protein)", "chain": "MTVFRQENVDDYYDTGEELGSGQFAVVKKCREKSTGLQYAAKFIKKRRTKSSRRGVSREDIEREVSILKEIQHPNVITLHEVYENKTDVILILELVAGGELFDFLAEKESLTEEEATEFLKQILNGVYYLHSLQIAHFDLKPENIMLLDRNVPKPRIKIIDFGLAHKIDFGNEFKNIFGTPEFVAPEIVNYEPLGLEADMWSIGVITYILLSGASPFLGDTKQETLANVSAVNYEFEDEYFSNTSALAKDFIRRLLVKDPKKRMTIQDSLQHPWIKPKDTQQALS"}, "B2": {"name": "Flag-tagged DAPk (full length) (protein)", "chain": "MTVFRQENVDDYYDTGEELGSGQFAVVKKCREKSTGLQYAAKFIKKRRTKSSRRGVSREDIEREVSILKEIQHPNVITLHEVYENKTDVILILELVAGGELFDFLAEKESLTEEEATEFLKQILNGVYYLHSLQIAHFDLKPENIMLLDRNVPKPRIKIIDFGLAHKIDFGNEFKNIFGTPEFVAPEIVNYEPLGLEADMWSIGVITYILLSGASPFLGDTKQETLANVSAVNYEFEDEYFSNTSALAKDFIRRLLVKDPKKRMTIQDSLQHPWIKPKDTQQALSRKASAVNMEKFKKFAARKKWKQSVRLISLCQRLSRSFLSRSNMSVARSDDTLDEEDSFVMKAIIHAINDDNVPGLQHLLGSLSNYDVNQPNKHGTPPLLIAAGCGNIQILQLLIKRGSRIDVQDKGGSNAVYWAARHGHVDTLKFLSENKCPLDVKDKSGEMALHVAARYGHADVAQLLCSFGSNPNIQDKEEETPLHCAAWHGYYSVAKALCEAGCNVNIKNREGETPLLTASARGYHDIVECLAEHGADLNACDKDGHIALHLAVRRCQMEVIKTLLSQGCFVDYQDRHGNTPLHVACKDGNMPIVVALCEANCNLDISNKYGRTPLHLAANNGILDVVRYLCLMGASVEALTTDGKTAEDLARSEQHEHVAGLLARLRKDTHRGLFIQQLRPTQNLQPRIKLKLFGHSGSGKTTLVESLKCGLLRSFFRRRRPRLSSTNSSRFPPSPLASKPTVSVSINNLYPGCENVSVRSRSMMFEPGLTKGMLEVFVAPTHHPHCSADDQSTKAIDIQNAYLNGVGDFSVWEFSGNPVYFCCYDYFAANDPTSIHVVVFSLEEPYEIQLNQVIFWLSFLKSLVPVEEPIAFGGKLKNPLQVVLVATHADIMNVPRPAGGEFGYDKDTSLLKEIRNRFGNDLHISNKLFVLDAGASGSKDMKVLRNHLQEIRSQIVSVCPPMTHLCEKIISTLPSWRKLNGPNQLMSLQQFVYDVQDQLNPLASEEDLRRIAQQLHSTGEINIMQSETVQDVLLLDPRWLCTNVLGKLLSVETPRALHHYRGRYTVEDIQRLVPDSDVEELLQILDAMDICARDLSSGTMVDVPALIKTDNLHRSWADEEDEVMVYGGVRIVPVEHLTPFPCGIFHKVQVNLCRWIHQQSTEGDADIRLWVNGCKLANRGAELLVLLVNHGQGIEVQVRGLETEKIKCCLLLDSVCSTIENVMATTLPGLLTVKHYLSPQQLREHHEPVMIYQPRDFFRAQTLKETSLTNTMGGYKESFSSIMCFGCHDVYSQASLGMDIHASDLNLLTRRKLSRLLDPPDPLGKDWCLLAMNLGLPDLVAKYNTSNGAPKDFLPSPLHALLREWTTYPESTVGTLMSKLRELGRRDAADFLLKASSVFKINLDGNGQEAYASSCNSGTSYNSISSVVSR"}},
  "key": {"[1]": {"molecular_target": "T1, mutant BH3 peptide (aa 108-127) in which Thr119 was substituted to alanine (T119A)", "T1 chain": "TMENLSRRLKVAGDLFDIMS"}, "[2]": {"molecular_target": "T2, peptide corresponding to Beclin's BH3 domain (aa 108-127)", "T2 chain": "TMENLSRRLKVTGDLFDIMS"}, "[3]": {"molecular_target": "Flag-tagged Beclin-1 (wild type)", "sequence (chain, as listed by the source)": "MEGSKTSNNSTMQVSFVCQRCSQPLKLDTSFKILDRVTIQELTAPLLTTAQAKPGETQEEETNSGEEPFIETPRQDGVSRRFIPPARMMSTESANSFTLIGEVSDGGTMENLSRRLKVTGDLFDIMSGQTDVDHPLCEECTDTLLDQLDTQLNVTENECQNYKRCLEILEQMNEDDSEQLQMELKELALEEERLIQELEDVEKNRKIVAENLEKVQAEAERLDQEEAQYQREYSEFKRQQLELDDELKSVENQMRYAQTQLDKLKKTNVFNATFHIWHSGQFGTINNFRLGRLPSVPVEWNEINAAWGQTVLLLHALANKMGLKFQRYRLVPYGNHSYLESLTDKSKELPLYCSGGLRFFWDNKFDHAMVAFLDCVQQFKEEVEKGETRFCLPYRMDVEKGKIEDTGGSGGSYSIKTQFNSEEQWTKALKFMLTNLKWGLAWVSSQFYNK"}, "[4]": {"molecular_target": "GST protein (GST alone) [GST: P08515]", "sequence (P08515 whole entry)": "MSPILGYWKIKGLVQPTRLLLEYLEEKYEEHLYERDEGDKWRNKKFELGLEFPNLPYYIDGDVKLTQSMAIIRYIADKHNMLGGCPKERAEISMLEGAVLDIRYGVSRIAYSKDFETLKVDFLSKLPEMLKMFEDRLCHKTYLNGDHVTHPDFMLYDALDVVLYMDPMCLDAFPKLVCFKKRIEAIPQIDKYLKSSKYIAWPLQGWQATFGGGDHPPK"}, "[5]": {"molecular_target": "GST-Beclin-1 fusion protein (wild type, bacterially purified, not phosphorylated)", "sequence (chain, as listed by the source)": "as the sequence (chain, as listed by the source) above"}},
  "data": [
    {"protein": "B1", "values": [
      {"measurement": "peptide phosphorylation, filter assay counts", "setting": "[1]", "value": "Changing Thr119 to alanine strongly inhibited the extent of peptide phosphorylation"},
      {"measurement": "peptide phosphorylation, filter assay counts against substrate concentration", "setting": "[2]", "value": "DAPk phosphorylates Beclin's BH3 peptide in a dose-dependent manner"}
    ]},
    {"protein": "B2", "values": [
      {"measurement": "in vitro kinase assay, 33P incorporation (X-ray film)", "setting": "[3]", "value": "The phosphorylation by Flag-tagged (60 ng) DAPk was also observed when Flag-tagged Beclin-1 (250 ng), immunoprecipitated from HEK293T cells, was used as a substrate"},
      {"measurement": "in vitro kinase assay, 33P incorporation (X-ray film)", "setting": "[4]", "value": "GST-Beclin-1, but not GST alone, was phosphorylated by DAPk"},
      {"measurement": "in vitro kinase assay, 33P incorporation (X-ray film)", "setting": "[5]", "value": "GST-Beclin-1, but not GST alone, was phosphorylated by DAPk"},
      {"measurement": "phosphorylation site mapping by mass spectrometry", "setting": "[5]", "value": "two phosphorylation sites were identified with good accuracy ... a phosphorylation on S104 or T108, and the second was identified as Thr119"}
    ]}
  ]
}
